Drawing on the Immune Epitope Database (IEDB), this text covers Kd for 26 sequences.

Experiment [1] concerns the target HLA-A*26:01. As to the kind of experiment: IEDB peptide-MHC binding, purified MHC/competitive/radioactivity; filed as Kd, often an IC50 or EC50 that approximates it; ≥ and ≤ were set here for values at or beyond the usual limits of such assays.
A further experiment addresses HLA-A*30:01. Described as above.
The next experiment addresses HLA-A*30:02. The description is as above.
The next experiment concerns the target HLA-A*32:01. The description is as above.
The target in experiment [2] is HLA-A*01:01. Described as above.
The target of a further experiment is HLA-A*29:02. The description is as above.
The target of a further experiment is HLA-B*07:02. Description: IEDB peptide-MHC binding, purified MHC/direct/fluorescence; filed as Kd, often an IC50 or EC50 that approximates it; ≥ and ≤ were set here for values at or beyond the usual limits of such assays. Particulars: source organism: Homo sapiens.
A further experiment addresses HLA-A*69:01. The description is as above.
Another experiment addresses HLA-A*03:01. The experiment is described as above.
A further experiment addresses HLA-A*31:01. The experiment is described as above.
For experiment [3], the target named is HLA-A*01:01. Described as above.
Another experiment addresses HLA-A*11:01. The experiment is described as above.
For a further experiment, the target named is HLA-B*15:01. The experiment is described as above.
The target of another experiment is HLA-B*44:03. Description: IEDB peptide-MHC binding, purified MHC/competitive/radioactivity; filed as Kd, often an IC50 or EC50 that approximates it; ≥ and ≤ were set here for values at or beyond the usual limits of such assays.
A further experiment deals with HLA-A*02:01. As to the kind of experiment: IEDB peptide-MHC binding, purified MHC/competitive/fluorescence; filed as Kd, often an IC50 or EC50 that approximates it; ≥ and ≤ were set here for values at or beyond the usual limits of such assays.
The target of a further experiment is HLA-A*02:06. Description: IEDB peptide-MHC binding, purified MHC/competitive/radioactivity; filed as Kd, often an IC50 or EC50 that approximates it; ≥ and ≤ were set here for values at or beyond the usual limits of such assays.
Another experiment deals with HLA-A*02:03. The experiment is described as above.
In a further experiment the target is HLA-A*02:02. The description is as above.
Experiment [4] has as its target HLA-A*26:01. As to the kind of experiment: IEDB peptide-MHC binding, purified MHC/direct/fluorescence; filed as Kd, often an IC50 or EC50 that approximates it; ≥ and ≤ were set here for values at or beyond the usual limits of such assays.
The target in the next experiment is HLA-B*27:05. The experiment is described as above.
Another experiment deals with HLA-B*44:02. Description: IEDB peptide-MHC binding, purified MHC/competitive/radioactivity; filed as Kd, often an IC50 or EC50 that approximates it; ≥ and ≤ were set here for values at or beyond the usual limits of such assays.
The target in the next experiment is HLA-B*39:01. As to the kind of experiment: IEDB peptide-MHC binding, purified MHC/competitive/fluorescence; filed as Kd, often an IC50 or EC50 that approximates it; ≥ and ≤ were set here for values at or beyond the usual limits of such assays. Particulars: source organism: Escherichia coli.
The target of a further experiment is HLA-B*40:01. Description: IEDB peptide-MHC binding, purified MHC/direct/fluorescence; filed as Kd, often an IC50 or EC50 that approximates it; ≥ and ≤ were set here for values at or beyond the usual limits of such assays. Particulars: source organism: Mycobacterium tuberculosis.
The mark [5] stands for this setting: source organism: Mammarenavirus brazilense.
Where [6] appears, read: source organism: Burkholderia lata.
[7] abbreviates: source organism: Mycoplasmoides genitalium.
Setting [8] is: source organism: Xanthobacter autotrophicus.
Where [9] appears, read: source organism: Dengue virus 1 Brazil/97-11/1997.
Where [10] appears, read: source organism: Vaccinia virus WR.
[11] abbreviates: source organism: SARS coronavirus Tor2.
Setting [12] is: source organism: Dengue virus 4 Philippines/H241/1956.
Where [13] appears, read: source organism: Mammarenavirus guanaritoense.

With ESAQPGLLSY, the Kd was 0.0143 µM in the experiment with HLA-A*26:01 [1] (setting [5]); no less than 70.4 µM with HLA-A*30:01 (setting [5]); 1.69 µM with HLA-A*30:02 (setting [5]); no less than 69.9 µM with HLA-A*32:01 (setting [5]); 0.0698 µM with HLA-A*01:01 [2] (setting [5]); 3.09 µM with HLA-A*29:02 (setting [5]).
LPRWPPPQL: the results for the Kd in the experiment with HLA-B*07:02 and with HLA-A*69:01 (source organism: Homo sapiens) were 0.164 µM and 5.5 µM, respectively.
Consider SINDPRWGR, for which the Kd with HLA-A*03:01 (setting [6]) is no less than 20 µM; with HLA-A*31:01 (setting [6]), 0.0274 µM.
Consider KTPVESWEEI, for which the dissociation constant Kd with HLA-A*32:01 (source organism: Dengue virus 2 Peru/IQT2913/1996) was 1.61 µM.
For the sequence YSDIPRLKK, the dissociation constant (Kd) with HLA-A*03:01 (setting [7]) is 0.372 µM; with HLA-A*69:01 (setting [7]) it was 0.412 µM; in the experiment with HLA-A*01:01 [3] (setting [7]) it was 1.64 µM; in the experiment with HLA-A*11:01 (setting [7]) it was 0.0927 µM; with HLA-A*31:01 (setting [7]), 0.767 µM.
GVWTRDGNR: the Kd is no less than 20 µM with HLA-A*03:01 (setting [8]) and 0.059 µM with HLA-A*31:01 (setting [8]).
Take ATDFKFAMY: the equilibrium dissociation constant (Kd) with HLA-A*03:01 (source organism: Homo sapiens) was 7.81 µM; with HLA-B*15:01 (source organism: Homo sapiens) it was 4.1 µM; with HLA-A*01:01 [3] (source organism: Homo sapiens) it was 0.135 µM; with HLA-A*11:01 (source organism: Homo sapiens) it was 2.41 µM.
On to RETACLGKSY, for which, in the experiment with HLA-B*44:03 (setting [9]), the Kd is 0.0703 µM.
As for HIIIVALTI, in the experiment with HLA-A*32:01 (setting [10]), the Kd stood at 0.0788 µM.
Sequence ILNDEQLNL came in with a dissociation constant Kd in the experiment with HLA-A*02:01 (source organism: Vaccinia virus Tian Tan) of 0.0007 µM.
Take TLMNVITLV: the Kd with HLA-A*02:06 (setting [11]) amounted to 0.000697 µM; in the experiment with HLA-A*02:03 (setting [11]) it was 0.000251 µM; with HLA-A*02:02 (setting [11]), 0.00034 µM; with HLA-A*26:01 [4] (source organism: SARS-CoV1) it was 1.12 µM; with HLA-B*27:05 (source organism: SARS-CoV1), 10.1 µM; in the experiment with HLA-B*15:01 (source organism: SARS-CoV1), 6.12 µM. In the experiment with HLA-A*11:01 (source organism: SARS-CoV1), the Kd was no less than 26.9 µM.
On to ARLFGIRAK, for which the Kd stood at 1.24 µM with HLA-A*03:01 (source organism: Homo sapiens), 1.04 µM with HLA-B*27:05 (source organism: Homo sapiens), 4.24 µM in the experiment with HLA-A*11:01 (source organism: Homo sapiens) and 2.94 µM in the experiment with HLA-A*31:01 (source organism: Homo sapiens).
GEKALKLSWF: the Kd in the experiment with HLA-B*44:02 (setting [9]) is 0.373 µM; with HLA-B*44:03 (setting [9]), 0.135 µM.
For the sequence EENMEVEIW, the dissociation constant (Kd) was determined as 0.0234 µM with HLA-B*44:02 (setting [12]) and 0.0815 µM with HLA-B*44:03 (setting [12]).
As for ETPQGLAKI, the Kd with HLA-A*26:01 [4] (source organism: West Nile virus) came to 5.56 µM.
QTDPLWQKY: the Kd with HLA-A*26:01 [4] (source organism: Vibrio vulnificus CMCP6) was determined as 2.78 µM.
As to ILNFVAHVY, the equilibrium dissociation constant (Kd) came to 12 µM with HLA-A*26:01 [1] (setting [13]); 3.14 µM in the experiment with HLA-A*30:01 (setting [13]); 0.000522 µM with HLA-A*30:02 (setting [13]); 0.939 µM with HLA-A*32:01 (setting [13]); 7.94 µM in the experiment with HLA-A*01:01 [2] (setting [13]); 0.00124 µM with HLA-A*29:02 (setting [13]).
Take LFSGVSWVMK: in the experiment with HLA-A*32:01 (source organism: Dengue virus 3 Martinique/1243/1999), the Kd came out at 10.1 µM.
TVIFQTVVI: in the experiment with HLA-A*32:01 (setting [10]), the Kd stood at 0.569 µM.
Take ENARLRALL: in the experiment with HLA-B*39:01, the dissociation constant (Kd) was found to be 0.825 µM.
Sequence LEEIGILLL came in with a Kd with HLA-B*40:01 of 0.011 µM.
As for MTMKMMVHI, the Kd with HLA-A*32:01 (setting [10]) stood at 0.00475 µM.
Take AMHDKKIDIL: the Kd with HLA-A*02:01 (source organism: Variola major virus) is 0.222 µM; with HLA-A*02:06 (setting [10]), no less than 69.8 µM; with HLA-A*02:03 (setting [10]), 1.18 µM; in the experiment with HLA-A*02:02 (setting [10]) it was 0.387 µM.
As for SSKNQTWQIE, the Kd with HLA-A*32:01 (setting [12]) is no less than 31.6 µM.
On to IILVIIVVI, for which the Kd in the experiment with HLA-A*32:01 (setting [10]) is 0.415 µM.
The same measure, in the same setting: next, SIYGFGVTF: 0.000113 µM.

By Kd is commonly meant a measure of binding affinity in units of concentration.
